Key:
Experiment in all cases: holdup assay
Design in all cases: key: below the threshold = too weak to quantify, mostly under pKd 3.1 to 4
[1] = target: Inadl_2, Q8NI35
[2] = target: MAGI2_4, Q86UL8
[3] = target: Inadl_6, Q8NI35
[4] = target: TJP2_1, Q9UDY2
[5] = target: DLG1_1, Q12959
[6] = target: T1, HTRA4, P83105
T1 sequence (P83105 378-476, limits assumed, looked up): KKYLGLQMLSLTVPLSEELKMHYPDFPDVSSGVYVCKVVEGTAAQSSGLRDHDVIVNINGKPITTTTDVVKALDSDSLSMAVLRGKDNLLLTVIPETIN

[7] = target: Inadl_4, Q8NI35
[8] = target: T2, GRIP1_3, Q9Y3R0
T2 sequence (Q9Y3R0 247-346, limits assumed, looked up): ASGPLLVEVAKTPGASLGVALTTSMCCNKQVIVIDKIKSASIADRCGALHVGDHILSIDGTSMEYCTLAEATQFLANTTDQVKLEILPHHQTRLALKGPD

[9] = target: T3, ARHGEF11, O15085
T3 sequence (O15085 42-136, limits assumed, looked up): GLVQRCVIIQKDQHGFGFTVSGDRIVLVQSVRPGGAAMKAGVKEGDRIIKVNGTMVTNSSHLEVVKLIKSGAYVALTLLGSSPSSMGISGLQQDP

[10] = target: FRMPD4, Q14CM0
[11] = target: MAGI1_2, Q96QZ7
[12] = target: MAGI1_1, Q96QZ7
[13] = target: T4, APBA2_1, Q99767
T4 sequence (Q99767 563-664, limits assumed, looked up): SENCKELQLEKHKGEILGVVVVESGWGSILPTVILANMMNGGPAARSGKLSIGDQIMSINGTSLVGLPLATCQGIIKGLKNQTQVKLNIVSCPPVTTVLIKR

[14] = target: T5, RHPN1, Q8TCX5
T5 sequence (Q8TCX5 508-602, limits assumed, looked up): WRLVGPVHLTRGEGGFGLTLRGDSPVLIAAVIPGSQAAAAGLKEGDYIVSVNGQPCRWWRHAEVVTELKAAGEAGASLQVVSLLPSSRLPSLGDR

[15] = target: T6, SNTG1, Q9NSN8
T6 sequence (Q9NSN8 52-150, limits assumed, looked up): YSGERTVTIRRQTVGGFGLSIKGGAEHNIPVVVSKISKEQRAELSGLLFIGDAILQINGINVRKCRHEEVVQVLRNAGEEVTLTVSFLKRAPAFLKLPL

[16] = target: LDB3, O75112
[17] = target: T7, NHERF3_1, Q5T2W1
T7 sequence (Q5T2W1 4-100, limits assumed, looked up): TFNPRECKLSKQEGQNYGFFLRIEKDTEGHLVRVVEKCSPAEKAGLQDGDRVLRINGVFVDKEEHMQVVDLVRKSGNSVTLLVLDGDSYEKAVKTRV

[18] = target: MAGI2_6, Q86UL8
[19] = target: FRMPD2_3, Q68DX3
[20] = target: T8, DVL3, Q92997
T8 sequence (Q92997 244-331, limits assumed, looked up): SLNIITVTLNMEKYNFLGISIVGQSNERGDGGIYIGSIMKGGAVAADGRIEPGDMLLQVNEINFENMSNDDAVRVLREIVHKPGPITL

[21] = target: T9, GRIP1_5, Q9Y3R0
T9 sequence (Q9Y3R0 568-668, limits assumed, looked up): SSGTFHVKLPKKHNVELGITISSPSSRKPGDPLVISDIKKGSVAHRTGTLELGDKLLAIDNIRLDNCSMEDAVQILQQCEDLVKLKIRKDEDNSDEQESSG

[22] = target: PDZRN4_1, Q6ZMN7
[23] = target: Inadl_5, Q8NI35
[24] = target: GRIP2_5, Q9C0E4
[25] = target: DLG4_1, P78352
[26] = target: T10, DLG3_1, Q92796
T10 sequence (Q92796 125-227, limits assumed, looked up): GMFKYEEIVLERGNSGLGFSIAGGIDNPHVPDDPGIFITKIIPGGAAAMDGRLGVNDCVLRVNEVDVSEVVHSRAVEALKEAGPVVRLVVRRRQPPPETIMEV

[27] = target: T11, LNX2_2, Q8N448
T11 sequence (Q8N448 334-432, limits assumed, looked up): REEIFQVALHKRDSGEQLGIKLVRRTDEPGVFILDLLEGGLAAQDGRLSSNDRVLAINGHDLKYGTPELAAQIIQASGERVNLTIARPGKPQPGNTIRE

[28] = plain residues with an end cap or a label only (N-terminal biotin on a linker: ahx)
[29] = plain residues with an end cap or a label only (N-terminal biotin on a linker: ttds)

FRMPD2_3, Q68DX3, sequence (Q68DX3 1073-1166): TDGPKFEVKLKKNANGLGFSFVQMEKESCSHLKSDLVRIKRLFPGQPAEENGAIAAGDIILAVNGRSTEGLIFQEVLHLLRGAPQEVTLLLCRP
TJP2_1, Q9UDY2, sequence (Q9UDY2 24-128): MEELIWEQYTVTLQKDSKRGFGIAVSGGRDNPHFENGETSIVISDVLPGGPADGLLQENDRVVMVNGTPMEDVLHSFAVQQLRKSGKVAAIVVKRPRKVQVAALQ
DLG4_1, P78352, sequence (P78352 62-152): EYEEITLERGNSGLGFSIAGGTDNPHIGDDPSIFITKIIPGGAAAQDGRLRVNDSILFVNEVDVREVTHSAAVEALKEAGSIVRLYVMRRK
MAGI1_1, Q96QZ7, sequence (Q96QZ7 1-106): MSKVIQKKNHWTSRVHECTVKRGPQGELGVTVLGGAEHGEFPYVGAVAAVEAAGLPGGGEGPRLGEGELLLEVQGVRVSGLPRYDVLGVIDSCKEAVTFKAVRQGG
GRIP2_5, Q9C0E4, sequence (Q9C0E4 544-642): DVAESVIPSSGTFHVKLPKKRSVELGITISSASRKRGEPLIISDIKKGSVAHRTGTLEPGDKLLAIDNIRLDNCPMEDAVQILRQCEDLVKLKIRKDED
Inadl_2, Q8NI35, sequence (Q8NI35 238-335): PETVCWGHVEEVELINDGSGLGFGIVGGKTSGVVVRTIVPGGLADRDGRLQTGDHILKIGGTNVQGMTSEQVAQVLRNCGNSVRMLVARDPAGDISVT
Inadl_4, Q8NI35, sequence (Q8NI35 547-651): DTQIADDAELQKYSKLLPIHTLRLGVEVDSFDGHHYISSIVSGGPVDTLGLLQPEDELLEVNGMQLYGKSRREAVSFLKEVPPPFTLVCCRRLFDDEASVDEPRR
PDZRN4_1, Q6ZMN7, sequence (Q6ZMN7 213-318): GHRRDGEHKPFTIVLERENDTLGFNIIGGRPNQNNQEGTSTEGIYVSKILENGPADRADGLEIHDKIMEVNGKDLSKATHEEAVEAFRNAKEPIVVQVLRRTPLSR
FRMPD4, Q14CM0, sequence (Q14CM0 67-160): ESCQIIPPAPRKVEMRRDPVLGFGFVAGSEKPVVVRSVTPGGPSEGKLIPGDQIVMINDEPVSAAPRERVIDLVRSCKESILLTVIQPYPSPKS
Inadl_5, Q8NI35, sequence (Q8NI35 673-780): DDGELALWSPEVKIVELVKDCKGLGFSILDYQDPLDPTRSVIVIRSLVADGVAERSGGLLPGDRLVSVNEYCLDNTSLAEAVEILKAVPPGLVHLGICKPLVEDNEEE
LDB3, O75112, sequence (O75112 1-94): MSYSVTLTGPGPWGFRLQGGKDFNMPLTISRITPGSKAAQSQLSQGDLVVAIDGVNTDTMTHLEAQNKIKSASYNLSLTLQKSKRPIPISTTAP
MAGI1_2, Q96QZ7, sequence (Q96QZ7 456-580): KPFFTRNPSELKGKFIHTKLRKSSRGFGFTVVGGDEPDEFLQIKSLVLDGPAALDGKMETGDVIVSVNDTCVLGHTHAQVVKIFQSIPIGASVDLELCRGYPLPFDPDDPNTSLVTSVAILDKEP
MAGI2_4, Q86UL8, sequence (Q86UL8 772-865): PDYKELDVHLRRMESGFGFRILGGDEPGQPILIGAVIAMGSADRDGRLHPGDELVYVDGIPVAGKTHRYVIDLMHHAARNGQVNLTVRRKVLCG
MAGI2_6, Q86UL8, sequence (Q86UL8 1141-1229): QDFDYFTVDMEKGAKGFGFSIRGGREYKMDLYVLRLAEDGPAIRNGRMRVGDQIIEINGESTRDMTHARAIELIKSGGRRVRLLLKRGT
Inadl_6, Q8NI35, sequence (Q8NI35 1058-1167): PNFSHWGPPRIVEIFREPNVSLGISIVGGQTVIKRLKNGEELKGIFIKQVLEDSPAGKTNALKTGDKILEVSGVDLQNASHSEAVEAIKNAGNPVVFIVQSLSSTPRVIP

EKLSSIESDV [GRIN2B, Q13224]
pKd [1, 28]: below the threshold | pKd [2, 28]: 3.61 | pKd [3, 28]: below the threshold | pKd [4, 28]: below the threshold | pKd [5, 28]: 4.3 | pKd [6, 28]: below the threshold | pKd [7, 28]: below the threshold | pKd [8, 28]: below the threshold | pKd [9, 28]: 3.56 | pKd [10, 28]: below the threshold | pKd [11, 28]: below the threshold | pKd [12, 28]: below the threshold | pKd [13, 28]: 3.53 | pKd [14, 28]: 4.73 | pKd [15, 28]: 4.8 | pKd [16, 28]: below the threshold | pKd [17, 28]: below the threshold | pKd [18, 28]: 4.65 | pKd [19, 28]: below the threshold | pKd [20, 28]: below the threshold | pKd [21, 28]: below the threshold | pKd [22, 28]: below the threshold | pKd [23, 28]: below the threshold | pKd [24, 28]: below the threshold | pKd [25, 28]: 4.37 | pKd [26, 28]: 4.15 | pKd [27, 28]: below the threshold

VNKVWDQSSV [CIT, O14578]
pKd [1, 29]: below the threshold | pKd [2, 29]: below the threshold | pKd [3, 29]: below the threshold | pKd [4, 29]: below the threshold | pKd [5, 29]: below the threshold | pKd [6, 29]: below the threshold | pKd [7, 29]: below the threshold | pKd [8, 29]: below the threshold | pKd [9, 29]: below the threshold | pKd [10, 29]: below the threshold | pKd [11, 29]: below the threshold | pKd [12, 29]: below the threshold | pKd [13, 29]: below the threshold | pKd [14, 29]: 3.82 | pKd [15, 29]: 3.73 | pKd [16, 29]: below the threshold | pKd [17, 29]: below the threshold | pKd [18, 29]: 3.57 | pKd [19, 29]: below the threshold | pKd [20, 29]: below the threshold | pKd [21, 29]: below the threshold | pKd [22, 29]: below the threshold | pKd [23, 29]: below the threshold | pKd [24, 29]: below the threshold | pKd [25, 29]: below the threshold | pKd [26, 29]: below the threshold | pKd [27, 29]: below the threshold

SEKHFRETEV [HTLV1-TAX1, P03409]
pKd [1, 29]: below the threshold | pKd [2, 29]: 4.49 | pKd [3, 29]: 3.69 | pKd [4, 29]: below the threshold | pKd [5, 29]: 5.19 | pKd [6, 29]: below the threshold | pKd [7, 29]: below the threshold | pKd [8, 29]: below the threshold | pKd [9, 29]: 4.22 | pKd [10, 29]: below the threshold | pKd [11, 29]: 4.45 | pKd [12, 29]: below the threshold | pKd [13, 29]: below the threshold | pKd [14, 29]: 4.08 | pKd [15, 29]: 5.43 | pKd [16, 29]: below the threshold | pKd [17, 29]: 4.71 | pKd [18, 29]: 4.43 | pKd [19, 29]: 3.77 | pKd [20, 29]: 3.62 | pKd [21, 29]: below the threshold | pKd [22, 29]: 4.9 | pKd [23, 29]: below the threshold | pKd [24, 29]: below the threshold | pKd [25, 29]: 5.22 | pKd [26, 29]: 4.58 | pKd [27, 29]: 4.15

HIVEALETDV [PBK, Q96KB5]
pKd [1, 29]: below the threshold | pKd [2, 29]: 4.4 | pKd [3, 29]: 3.78 | pKd [4, 29]: below the threshold | pKd [5, 29]: 5.01 | pKd [6, 29]: below the threshold | pKd [7, 29]: below the threshold | pKd [8, 29]: below the threshold | pKd [9, 29]: 4.31 | pKd [10, 29]: below the threshold | pKd [11, 29]: below the threshold | pKd [12, 29]: below the threshold | pKd [13, 29]: below the threshold | pKd [14, 29]: 4.91 | pKd [15, 29]: 5.68 | pKd [16, 29]: below the threshold | pKd [17, 29]: below the threshold | pKd [18, 29]: 5.35 | pKd [19, 29]: below the threshold | pKd [20, 29]: below the threshold | pKd [21, 29]: below the threshold | pKd [22, 29]: below the threshold | pKd [23, 29]: below the threshold | pKd [24, 29]: below the threshold | pKd [25, 29]: 5.11 | pKd [26, 29]: 4.67 | pKd [27, 29]: 3.92
